For the assay, the target named is T1, FITC-labeled peptide with the target sequence for the SH2 domain, EHIpYDEVAAD.
T1 construct: also called N-Glu-His-Ile-pTyr-Asp-Glu-Val-Ala-Ala-Asp-C
T1 peptide: {FITC-Ahx}-EHI[pY]DEVAAD
Put plainly: fluorescence anisotropy of FITC-labeled peptide against rising protein concentration (FIG. 16D). The text has this:
FIGS. 16A-16E. Functional (peptide-binding) characterization of dTor_12×31L_SH2_single (12× scaffold containing 1 SH2 domain). FIG. 16A: SDS-PAGE electrophoretic analysis of purified dTor_12×31L SH2_single (corresponding to a monomeric cTRP containing 12 repeats, interrupted within repeat #3 by an SH2 domain derived from the human Nck2 adapter protein). FIG. 16B: ribbon diagram of the design of dTor_12×31L SH2_single, visualized from the top and the side of the designed protein repeats. FIG. 16C: Size Exclusion Chromatographic (SEC) separation and analysis of purified dTor_12×31L_SH2_single. Hydrodynamic radii of purified constructs, measured using dynamic light scattering (DLS), is also indicated. FIG. 16D: Binding of peptide corresponding to sequence by dTor_12×31L_SH2_single. Binding measured by monitoring Fluorescence Anisotropy signal from a labeled peptide as a function of increasing protein concentration. […]
Determination of ligand binding using Fluorescence Polarization (FP): Each protein construct was 2-fold serially diluted into twelve concentrations, from 23 μM to 0.011 μM, using FP Buffer (20 mM HEPES+150 mM KCl at pH7.4). […] Background was subtracted from raw perpendicular and parallel fluorescence intensity, which were then converted to fluorescence polarization (mP) by the following equation: […]
In general terms: Polarisation of emitted light reports the rotation of a fluorescent probe.

Where no end group is shown, it is not given here. [ ]: non-standard residue; d: D form. The star is where a group is joined. FITC = O=C1OC2(c3ccc(O)cc3Oc3cc(O)ccc32)c2ccc(NC(=S)*)cc21; pY = N[C@@H](Cc1ccc(OP(=O)(O)O)cc1)C(=O)O; Ahx = NCCCCCC(=O)O

The source of these data is patent US20200190220A1 (FRED HUTCHINSON CANCER RESEARCH CENTER, published 2020).

B1: dTor_12×31L (non-functionalized, lacking any inserted SH2 domain) (designed binder)
chain: GSSMASGISVEELLKLAKAAYYSGTTVEEAYKLALKLGISVEELLKLAEAAYYSGTTVEEAYKLALKLGISVEELLKLAKAAYYSGTTVEEAYKLALKLGISVEELLKLAKAAYYSGTTVEEAYKLALKLGISVEELLKLAEAAYYSGTTVEEAYKLALKLGISVEELLKLAKAAYYSGTTVEEAYKLALKLGISVEELLKLAKAAYYSGTTVEEAYKLALKLGISVEELLKLAEAAYYSGTTVEEAYKLALKLGISVEELLKLAKAAYYSGTTVEEAYKLALKLGISVEELLKLAKAAYYSGTTVEEAYKLALKLGISVEELLKLAEAAYYSGTTVEEAYKLALKLGISVEELLKLAKAAYYSGTTVEEAYKLALKLG
B1: the binding result was “no binding”.
